# ± gives the uncertainty stated by the source.
# B1: library; numbered along this chain (parent)
# chain: MEVVDPQQLGMFTEGELMSVGMDTFIHRIDSTEVIYQPRRKRAKLIGKYLMGDLLGEGSYGKVKEVLDSETLCRRAVKILKKKKLRRIPNGEANVKKEIQLLRRLRHKNVIQLVDVLYNEEKQKMYMVMEYCVCGMQEMLDSVPEKRFPVCQAHGYFCQLIDGLEYLHSQGIVHKDIKPGNLLLTTGGTLKISDLGVAEALHPFAADDTCRTSQGSPAFQPPEIANGLDTFSGFKVDIWSAGVTLYNITTGLYPFEGDNIYKLFENIGKGSYAIPGDCGPPLSDLLKGMLEYEPAKRFSIRQIRQHSWFRKKHPPAEAPVPIPPSPDTKDRWRSMTVVPYLEDLHGADEDEDLFDIEDDIIYTQDFTVPGQVPEEEASHNGQRRGLPKAVCMNGTEAAQLSTKSRAEGRAPNPARKACSASSKIRRLSACKQQ
# Variants of: B1
# Assay: STK11 functional score (HeLa growth suppression), rescaled enrichment; synonymous median = 1, nonsense median = 0 (normalised score)
# Settings: with HeLa; variant type: missense
# Experimental: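 Deep mutational scan (TileSeq/POPCode codon randomisation) of full-length codon-optimised STK11 cDNA integrated at a Bxb1 landing pad (AAVS1) in HeLa cells. Restoring functional STK11 suppresses HeLa proliferation. Variant frequencies were measured by NGS before and after about two weeks of growth. The error-corrected enrichment log-ratio was rescaled so that synonymous median = 1 and nonsense median = 0, scores above 1 were compressed, and codon-level and three biological replicate scores were combined; error is the bootstrapped standard error. Scale: synonymous median = 1, nonsense median = 0; below 0.5 = damaging.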
row,Variant,STK11 functional score
1,M335D,0.605 ± 0.14
2,M335W,0.367 ± 0.13
3,M335R,1.46 ± 0.3
4,A389Q,1.18 ± 0.17
5,H202N,0.176 ± 0.17
6,D115P,0.396 ± 0.48
7,Q37M,1.17 ± 0.1
8,Q37A,1.34 ± 0.51
9,Q305K,0.543 ± 0.25
10,Q305E,1.02 ± 0.38
11,Q305R,1.14 ± 0.47
12,A398I,1.13 ± 0.64
13,T24W,1.6 ± 0.093
14,S283I,0.942 ± 0.12
15,G10W,1.33 ± 0.084
16,G10L,1.63 ± 0.21
17,G10F,1.56 ± 0.41
18,Q112Y,1.01 ± 0.096
19,Q112V,1.01 ± 0.1
20,G394F,1.17 ± 0.11
21,H168I,0.159 ± 0.098
22,H168P,0.0717 ± 0.12
23,L85P,1.41 ± 0.18
24,F231W,0.409 ± 0.37

row,Variant,STK11 functional score
1,F231R,1.26 ± 0.52
2,S334C,0.325 ± 0.13
3,A218R,0.926 ± 0.14
4,G279V,0.88 ± 0.32
5,E65R,0.846 ± 0.099
6,L160A,1.07 ± 0.18
7,L190F,0.343 ± 0.17
8,L190R,0.223 ± 0.19
9,Q382S,1.5 ± 0.19
10,Q382M,1.52 ± 0.27
11,E14Y,1.34 ± 0.49
12,Q371S,1.32 ± 0.15
13,Q371P,1.3 ± 0.51
14,Q371H,1.15 ± 0.68
15,V128P,-0.00512 ± 0.14
16,V128R,0.15 ± 0.084
17,R426K,1.49 ± 0.28
18,L17I,0.851 ± 0.16
19,L17H,1.53 ± 0.16
20,L17W,1.56 ± 0.24
21,S232W,0.692 ± 0.097
22,S271G,0.976 ± 0.3
23,R74T,-0.214 ± 0.22
24,I172W,0.519 ± 0.11

row,Variant,STK11 functional score
1,V320Y,1.55 ± 0.23
2,V77R,0.469 ± 0.17
3,L113H,0.781 ± 0.24
4,R301P,1.07 ± 0.38
5,A429D,1.52 ± 0.12
6,A429C,1.62 ± 0.14
7,E375D,1.58 ± 0.34
8,Y49L,0.852 ± 0.22
9,P38W,0.876 ± 0.077
10,P38N,0.557 ± 0.099
11,P38G,0.508 ± 0.53
12,P38L,0.812 ± 0.14
13,F234G,1.33 ± 0.41
14,A414Y,1.58 ± 0.12
15,A414I,1.33 ± 0.28
16,A76W,-0.171 ± 0.28
17,A76Q,0.447 ± 0.14
18,K431S,1.64 ± 0.14
19,K423R,1.17 ± 0.14
20,P315W,0.723 ± 0.21
21,I111Y,0.97 ± 0.1
22,P280Q,1.36 ± 0.4
23,P323W,0.993 ± 0.6
24,T230Q,1.39 ± 0.22

row,Variant,STK11 functional score
1,N266C,0.945 ± 0.51
2,N266P,1.09 ± 0.12
3,L341R,1.21 ± 0.14
4,L341Q,1.59 ± 0.17
5,R106P,1.14 ± 0.42
6,G233V,0.47 ± 0.11
7,D327N,1.3 ± 0.64
8,D327V,1.31 ± 0.46
9,K62L,1.35 ± 0.21
10,T363G,1.58 ± 0.24
11,T363C,1.33 ± 0.48
12,S428A,1.14 ± 0.54
13,P321S,1.42 ± 0.13
14,R104F,1.19 ± 0.3
15,R39K,0.866 ± 0.75
16,V243S,0.561 ± 0.11
17,Y246L,0.818 ± 0.17
18,V20S,1.46 ± 0.22
19,Y362L,1.17 ± 0.24
20,R425N,1.62 ± 0.25
21,V4G,1.03 ± 0.13
22,V4I,1.43 ± 0.16
23,V4T,1.06 ± 0.15
24,V4D,1.45 ± 0.39

row,Variant,STK11 functional score
1,E199C,1.38 ± 0.23
2,A241G,0.802 ± 0.13
3,A241S,0.863 ± 0.15
4,N181H,0.134 ± 0.14
5,D207V,1.09 ± 0.41
6,D176C,-0.0937 ± 0.092
7,T328H,1.52 ± 0.17
8,T328E,1.5 ± 0.17
9,A200P,1.35 ± 0.56
10,S299F,0.544 ± 0.1
11,N393T,1.48 ± 0.36
12,C132M,1.35 ± 0.73
13,C132W,-0.606 ± 0.08
14,P369C,1.31 ± 0.39
15,V372M,0.74 ± 0.69
16,C278T,1.22 ± 0.19
17,C278I,0.402 ± 0.12
18,C278W,0.795 ± 0.1
19,K269R,1.22 ± 0.28
20,T367F,1.36 ± 0.18
21,Y156E,1.15 ± 0.36
22,Y156M,1.69 ± 0.25
23,Y156D,0.293 ± 0.4
24,T71Q,1.58 ± 0.14

row,Variant,STK11 functional score
1,T71R,0.849 ± 0.16
2,T395Y,1.47 ± 0.23
3,Q100T,1.3 ± 0.43
4,Q100D,1.57 ± 0.19
5,G227C,0.981 ± 0.31
6,I424R,1.5 ± 0.17
7,N226S,0.759 ± 0.096
8,G385S,1.51 ± 0.2
9,I300S,0.391 ± 0.083
10,I303S,-0.209 ± 0.085
11,P222M,0.595 ± 0.11
12,M22P,1.54 ± 0.16
13,L183R,0.0747 ± 0.097
14,R383C,1.22 ± 0.12
15,R383Q,1.51 ± 0.28
16,R383M,1.59 ± 0.31
17,G408S,1.59 ± 0.26
18,G408K,1.56 ± 0.24
19,E33G,0.902 ± 0.25
20,P339E,0.55 ± 0.16
21,P339L,0.979 ± 0.25
22,H345G,1.49 ± 0.39
23,I46W,0.0413 ± 0.094
24,Q159G,1.1 ± 0.15

row,Variant,STK11 functional score
1,G215I,0.938 ± 0.11
2,L80V,0.484 ± 0.079
3,L67Y,0.0744 ± 0.31
4,P144D,1.46 ± 0.29
5,P144K,1.63 ± 0.2
6,P144T,1.18 ± 0.2
7,E121A,0.765 ± 0.27
8,E121I,1.42 ± 0.52
9,E121S,1.17 ± 0.1
10,E121R,1.31 ± 0.17
11,S307V,1.34 ± 0.16
12,S307R,0.948 ± 0.22
13,Q214T,1.64 ± 0.2
14,Q214H,1.39 ± 0.53
15,Y166G,1.23 ± 0.34
16,Y166P,0.994 ± 0.26
17,Y166A,1.47 ± 0.24
18,Y166M,0.651 ± 0.08
19,C158S,0.627 ± 0.15
20,R409N,1.55 ± 0.12
21,R409P,1.57 ± 0.35
22,N247I,1.16 ± 0.15
23,I260F,0.763 ± 0.1

# Source: the supplement of paper PMC12338614
